Measurements from paper PMC1762332, “Catalases Are NAD(P)H-Dependent Tellurite Reductases” (PLoS ONE, 2006).

Legend:
[1] = biological target: the molecule itself; assay: native gel or EMSA; purified bovine liver catalase on native 12% polyacrylamide gel, 40 mM Tris-glycine pH 8.3, 4°C; band compared with a 244 kDa standard; dismutase and tellurite reductase activities stained in situ
[2] = biological target: the molecule itself; assay: native gel or EMSA; crude extracts of E. coli Top10 (pCAT) on native 12% polyacrylamide gel, 40 mM Tris-glycine pH 8.3, 4°C; catalase found by H2O2 dismutase and tellurite reductase activity staining in situ

B1: bovine liver catalase (enzyme, UniProt P00432 1-527, looked up)
chain: MADNRDPASDQMKHWKEQRAAQKPDVLTTGGGNPVGDKLNSLTVGPRGPLLVQDVVFTDEMAHFDRERIPERVVHAKGAGAFGYFEVTHDITRYSKAKVFEHIGKRTPIAVRFSTVAGESGSADTVRDPRGFAVKFYTEDGNWDLVGNNTPIFFIRDALLFPSFIHSQKRNPQTHLKDPDMVWDFWSLRPESLHQVSFLFSDRGIPDGHRHMNGYGSHTFKLVNANGEAVYCKFHYKTDQGIKNLSVEDAARLAHEDPDYGLRDLFNAIATGNYPSWTLYIQVMTFSEAEIFPFNPFDLTKVWPHGDYPLIPVGKLVLNRNPVNYFAEVEQLAFDPSNMPPGIEPSPDKMLQGRLFAYPDTHRHRLGPNYLQIPVNCPYRARVANYQRDGPMCMMDNQGGAPNYYPNSFSAPEHQPSALEHRTHFSGDVQRFNSANDDNVTQVRTFYLKVLNEEQRKRLCENIAGHLKDAQLFIQKKAVKNFSDVHPEYGSRIQALLDKYNEEKPKNAVHTYVQHGSHLSAREKANL
notes: catalase (EC 1.11.1.6) from bovine liver, commercial purified enzyme; the legend calls it a tetramer of 255 kDa; also called bovine catalase; catalase (C-9322); source: bought: Sigma (C-9322), purified
[1]
  stoichiometry N: 4

B2: S. epidermidis CH catalase (product of the katA gene) expressed from plasmid pCAT (enzyme, Staphylococcus epidermidis CH, UniProt Q2PUJ9 1-504, looked up)
chain: MSKQDGKLTGLFGAPVSDRENSMTAGRRGPLLMQDVYYLEQISHFDREVIPERRMHAKGSGAFGTFTVTNDITQYTNAKIFSEVGKQTEMFARFSTVSGERGAADLERDIRGFALKFYTEDGNWDLVGNNTPVFFFRDPKLFISLNRAVKRDPRTNMRSAQNNWDFWTGLPEALHQVTILMSDRGMPKGFRNMHGFGSHTYSMYNDKGERVWVKYHFRTQQGIENYTDEEAAKIVGMDRDSSQRDLYNAIENGDYPKWKMYIQVMTEEQAKNHPDNPFDLTKVWYKKDYPLIEVGEFELNRNPENYFLDVEQAAFAPTNIVPGLDYSPDKMLQGRLFSYGDAQRYRLGVNHWQIPVNQPKGVGVENLCPFSRDGQMRFLDNNQGGGPHYYPNNQGIYESQPEHKKPPFPTDGDGYEYNYRQDDDNYFEQPGKLFRLQSEDAKERIFTNTANAMDGVSKDVKVRHIRHCYKADPEYGKGVAKALDIDINQIDLETNQDETYENFK
notes: catalase KatA of Staphylococcus epidermidis strain CH; The coding region was amplified with primers from the ATG to the stop codon; The 1,515 bp gene is deposited as GenBank DQ301862 and differs by 15 bp from its homolog SE1016 in strain ATCC12228; Cloned with the pBAD TOPO TA Expression Kit; also called S. epidermidis catalase; 60 kDa protein; source: E. coli Top10 carrying pCAT (pBAD vector), …
[2]
  stoichiometry N: 4
